The target of assay [1] is T1, human CD276 protein (human, UniProt Q5ZPR3 29-534).
T1 construct: whole, on cells; for SKOV3 and the other cancer lines the protein is the cells' own; also called B7-H3; B7H3
T1 sequence (looked up): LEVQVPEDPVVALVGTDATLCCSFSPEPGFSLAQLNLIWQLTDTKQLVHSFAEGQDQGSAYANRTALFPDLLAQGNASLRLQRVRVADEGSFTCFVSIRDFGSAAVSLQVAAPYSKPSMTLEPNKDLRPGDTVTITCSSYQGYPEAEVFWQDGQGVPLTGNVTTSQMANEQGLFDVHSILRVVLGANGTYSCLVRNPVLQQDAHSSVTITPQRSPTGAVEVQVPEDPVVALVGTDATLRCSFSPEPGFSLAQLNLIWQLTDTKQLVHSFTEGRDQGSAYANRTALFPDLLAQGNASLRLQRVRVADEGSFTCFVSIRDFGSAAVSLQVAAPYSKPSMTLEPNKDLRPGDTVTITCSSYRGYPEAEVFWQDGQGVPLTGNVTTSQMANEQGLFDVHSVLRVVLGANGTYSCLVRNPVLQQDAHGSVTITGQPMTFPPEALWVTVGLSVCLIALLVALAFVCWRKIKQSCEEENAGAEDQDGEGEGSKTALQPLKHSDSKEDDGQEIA
As to the kind of experiment: FACS on SKOV3 cells. An excerpt: Sequences of 31 mouse antibodies from Table 5 were selected to generate and produce human IgG1 chimeric antibodies. The binding affinity of these antibodies and bench mark antibody, Enoblituzumab (see U.S. Pat. No. 8,802,091, MGA271, specifically with a construct designated as hBRCA84D-2) and MGC018 (an antibody-drug-conjugate, in which the mAb MGA017 (human IgG1) is conjugated via a cleavable linker to the prodrug seco-DUocarmycin hydroxyBenzamide Azaindole (DUBA), an alkylating agent that can damage DNA in both dividing and non-dividing cells, thereby causing cell death) with human patient derived ovarian cancer cell line, SKOV3, was determined by FACS analysis.
1. Digested cells using Trypsin (1×); Centrifuged the harvested cells at 300 g for 3 min and discarding the supernatant. […] 2. Washed the cells 2 times with FACS buffer by centrifuging at 300 g for 3 min and discarding the supernatant. [0445] 3. […] Kept the cells in dark for FACS analysis.

Assay [2] addresses T1, human CD276 protein. As to the kind of experiment: cell-based or functional assay.
The target of assay [3] is T2, HUMAN B7H3 (Biacore analyte) (human, UniProt Q5ZPR3 29-461, limits assumed).
T2 construct: also called hB7H3
T2 sequence (looked up): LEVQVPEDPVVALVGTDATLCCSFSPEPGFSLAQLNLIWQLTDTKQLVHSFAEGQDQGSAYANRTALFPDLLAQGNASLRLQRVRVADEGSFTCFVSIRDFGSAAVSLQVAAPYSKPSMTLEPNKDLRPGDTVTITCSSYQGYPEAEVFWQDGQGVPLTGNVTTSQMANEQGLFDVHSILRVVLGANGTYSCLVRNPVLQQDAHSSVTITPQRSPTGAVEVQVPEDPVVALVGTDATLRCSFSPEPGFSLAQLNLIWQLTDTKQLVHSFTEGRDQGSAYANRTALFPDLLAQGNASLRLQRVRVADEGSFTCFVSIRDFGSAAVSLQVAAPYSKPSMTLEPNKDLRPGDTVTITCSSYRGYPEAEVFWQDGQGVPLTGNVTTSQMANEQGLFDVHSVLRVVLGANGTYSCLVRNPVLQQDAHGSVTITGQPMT
The experiment in a line: SPR, Biacore 8K, antibody captured, B7H3 as analyte, 1:1 binding. For orientation: Surface plasmon resonance follows binding to a sensor surface in real time, without labels.

Substitutions are numbered along the chain they refer to.

B1: 9-G2-H6-E4 (human IgG1 chimeric antibody) (antibody, V domains shown)
VH: EVQLQQSGPDLVKPGASVKISCKASGYSFTGYFMNWVKQRHGKSLEWIGYINPNNGDTIYNQKFKGKATLTVDKSSSTAHMELLSLTSEDSAVYYCGRGGLPFGALDYWGQGTSVTVSS
VL: DIVMSQSPSSLAVSVGEKVNMSCKSSQSLLYSRNQKNYLAWNQQKPGQSPKLLIYWASARESGVPDRFTGSGSGTDFTLTISSVKAEDLAAYYCQQYHSYPYTFGGGTKLELK
notes: human IgG1 chimeric antibody of the mouse clone
Consider B1, for which, in assay [1], the EC50 worked out at 3.66 µg/mL and the “MFI (Max)” value turned out to be 292. Further, in assay [2], the “EC50 of antibody induced ADCC effect on SKOV3” value (from here on “EC50 … on SKOV3”) was 13.6 µg/mL.

B2: 27-E7-D8-C7 (human IgG1 chimeric antibody) (antibody, V domains shown)
VH: EVQLQESGPELVRPGVSVKISCKGSGYTFTDYAMHWVKQSHAKSLEWIGVINTYSDNTNYNRKFKGKATMTVDKSSSTAYMELARLTSEDSAIYYCARGLLLRSQLGVYFDYWGQGTTLTVSS
VL: QIVLSQSPAILSASPGEKVTMTCRASSSVSYMHWYQQKPGSSPKPWIYATSNLASGVPARFSGSGSGTSYSLTISRVEAEDAATYYCQQWSSNPWTFGGGTKLEIK
notes: as for B1
Consider B2, for which, in assay [1], the response was half-maximal at 0.542 µg/mL (EC50) and the “MFI (Max)” value worked out at 4750. For the same molecule, in assay [2], the “EC50 … on SKOV3” value came to 0.103 µg/mL.

B3: 11-G10-B4-B11 (human IgG1 chimeric antibody) (antibody, V domains shown)
VH: DVQLQESGPGLVKPSQSLSLTCTVTGYSITSDYAWNWIRQFPGNKLEWMGYISYSGSTSYNPSLKSRISITRDTSKNQFFLQLNSVTTEDTATYYCARGGPWFAYWGQGTLVTVSA
VL: DVVMTQTPLSLPVSLGDQASISCRSSQSLVHSNGNTYLHWYLQKPGQSPKLLIYKVSNRFSGVPDRFSGSGSGTDFTLKISRVEAEDLGVYFCSQSTHVPFTFGSGTKLEIK
notes: as for B1
B3: in assay [1], the midpoint of the response, the EC50, lay at 0.536 µg/mL and the “MFI (Max)” value was 3750. Also, the “EC50 … on SKOV3” value in assay [2] amounted to 17.3 µg/mL.

B4: 21-B3-B1-H5 (human IgG1 chimeric antibody) (antibody, V domains shown)
VH: QIQLVQSGPELKKPGETVKISCKASGYIFRNYGMNWVKQAPGKGLKWMGWINSYTGKPTYVDDFKGRFAFSLETSASTAYLQINNLKNEDMATYFCARDDGYWYTMDYWGQGTSVTVSS
VL: B3 VL with N35H, F101W, S105G
notes: as for B1
On to B4, for which, in assay [1], the concentration giving a half-maximal response (EC50) came out at 0.723 µg/mL and the “MFI (Max)” value worked out at 2720. Besides, the “EC50 … on SKOV3” value in assay [2] amounted to 0.648 µg/mL.

B5: 30-E2-G7-G7 (human IgG1 chimeric antibody) (antibody, V domains shown)
VH: EVQLQESGGGLVKPGGSLKLSCAASGFTFSYYAMSWVRQTPEKRLEWVATINGDGSHTYYPDSVRGRFTISRDNAKNTLYLQVSSLRSEDTAMYYCASLLQLGPFWGQGTTLTVSS
VL: DIVMTQSQKFMSTSVGDRVSVTCKASQNVGTNVAWYHQRPGQSPKPLIYSASYRYSGVPDRFTGSGSGTDFTLTISNVQSEDLAEYFCQQYNNYPLTFGSGTKLEIK
notes: as for B1
Turning to B5, in assay [1], it took 0.814 µg/mL to reach a half-maximal effect (EC50) and the “MFI (Max)” value is 5630. Besides, the “EC50 … on SKOV3” value in assay [2] stood at 0.247 µg/mL.

B6: 20-F8-B5-G2 (human IgG1 chimeric antibody) (antibody, V domains shown)
VH: EVQLQESGPSLVKPSQTLSLTCSVTGDSITSAYWNWIRKFPGNKLEYMGYISNSGSTYYNPSLKSRISITRDTSKNQYYLQLNSVTTEDTGTYYCVRGERYYGYGAYWGQGTLVTVSA
VL: DIVMTQATPSVPVTPGESISISCRSSKSLLHSNGNTYLYWFLQRPGQSPQLLIYRMSNLASGVPDRFSGSGSGTAFTLRISRVEAEDVGVYYCMQHLEYPFTFGAGTKLELK
notes: as for B1
Take B6: in assay [1], the 50% effective concentration (EC50) came to 1.11 µg/mL and the “MFI (Max)” value stood at 3010. Moreover, the “EC50 … on SKOV3” value in assay [2] was found to be 3.01 µg/mL.

B7: 9-E8-F9-C10 (human IgG1 chimeric antibody) (antibody, V domains shown)
VH: EVQLQQSGAELVRPGTSVKISCKASGYAFSDYWLSWVKQRPGHGLEWIGDICPGSGNIYYNERFKDKVILTADRSSSTAYLQFSSLTSEDSVVYFCTRLITRVIDYWGQGTSVTVST
VL: ENVLTQSPAIMSASPGEKVTMTCSASSSVNYMHWYQQKSSTSPKLWIYDTSKLSSGVPGRFSGSGSGNSYSLTISSMEAEDVATYYCFQGSGYPLTFGAGTKLELK
As for B7, in assay [2], the “EC50 … on SKOV3” value was found to be 4.05 µg/mL.

B8: 15-G1-D1-E3 (human IgG1 chimeric antibody) (antibody, V domains shown)
VH: QVQLQQPGAELVKPGTSVKLSCKASGYTFTSYWIHWVKQRPGQGLEWIGMIHPKSGTVDYNEKFKSKATLTADKSSNTAYMQLSSLTSEASVVYYCARGENYDYRPQFVYWGQGTLVTVSA
VL: QLVLTQSSSASFSLGASAKLTCTLSSQHSTYTIEWYQQQPLKPPKYVMELKKDGSHRTGDGIPDRFSGSSSGADRYLSISNIQPEDEAIYICGVGDTIKEQFVYVFGGGTKVTVL
notes: as for B1
With B8, in assay [1], the EC50 worked out at 0.811 µg/mL and the “MFI (Max)” value was 3190. Further, the “EC50 … on SKOV3” value in assay [2] worked out at 0.0655 µg/mL. Moreover, in assay [3], the Kd is 383 pM, the dissociation rate constant (koff) worked out at 0.000211 s⁻¹ and the on-rate (kon) is 550000 M⁻¹ s⁻¹.

B9: 23-F10-G4-F11 (human IgG1 chimeric antibody) (antibody, V domains shown)
VH: EVQLQESGPDLVRPGALVKLSCKSSGFNIKDYPIHWVRQRPEQGLEWIGWFDPDNGNVIYDPRFQGKASITADTSSNTAYLQLNSLTSEDTAVYYCSSPYGAMDYWGQGTSVTVSS
VL: QIVLTQSPEIMSASPGEKVTMTCSASSSVSYIHWYQQKSGTSPKRWIYDTSKLASGVPARFSGSGSGTSYSLTIRSMEAEDAATYYCQQGSSNPRTFGGGTKLEIK
notes: as for B1
Regarding B9, in assay [1], the 50% effective concentration (EC50) was 4.42 µg/mL and the “MFI (Max)” value is 6720. Also, the “EC50 … on SKOV3” value in assay [2] was found to be 0.137 µg/mL.

B10: 3-C2-C3-E7 (human IgG1 chimeric antibody) (antibody, V domains shown)
VH: EVQLQQSGPELVKPGASVKISCKTSGYTFTENTMHWVKQSHGKRLEWIGGINPNTGGTTYNQKFKGKATLTVDKSSSTAYMELRSLTSEDSAVYYCARRGTNWEHWYFDVWGAGTTVTVSS
VL: B9 VL with E9A, I32M, R75S, G90W, R95L, G99A, I105L
notes: as for B1
Turning to B10, in assay [1], the EC50 stood at 1.43 µg/mL and the “MFI (Max)” value was 3700. Further, the “EC50 … on SKOV3” value in assay [2] is 0.186 µg/mL.

B11: 14-E7-G9-D4 (human IgG1 chimeric antibody) (antibody, V domains shown)
VH: EVQLQQSGPELVKPGASVKMSCKASGYTFTNYIMHWVKQKPGQGLEWIGYINPYNDGIKYNEKFKGKATLTSDKSSSTAYMELSSLTSEDSAVYYCTRWGNYVFYYTMDYWGQGTSVTVSS
VL: QIVLSQSPAILSASPGEKVTMTCRASSSVSYMHWYQQKPGSSPKPWIYATSNLASGVPARFSGSGSGTSYSLTISRMEAEDAATYYCQQWSGNPPLTFGAGTKLELK
notes: as for B1
Take B11: in assay [1], the EC50 stood at 1.62 µg/mL and the “MFI (Max)” value came out at 2730. Besides, the “EC50 … on SKOV3” value in assay [2] worked out at 0.252 µg/mL.

B12: 3-G7-D8-D3 (human IgG1 chimeric antibody) (antibody, V domains shown)
VH: QVQLQQSGAELARPGTSVKLSCKASGYTFTTYWIQWVKQRPGQGLEWIGAIYPGDGDTRYTQKFKGKATLTADKSSSTAYMQLSTLASEDSAVYYCARPYDGYYIDYPMDSWGQGTSVTVSS
VL: QIVLTQSPAIMSASPGEKVTMTCSASSRINYMHWYQQKPGTSPIIWIYDTSKLASGVPARFSGSGSGTSYSLTISSMEAEDAATYYCHQRSSYPFTFGSGTKLEIK
notes: as for B1
On to B12, for which, in assay [1], a half-maximal response (EC50) required 0.509 µg/mL and the “MFI (Max)” value is 1210. Moreover, the “EC50 … on SKOV3” value in assay [2] stood at 0.00898 µg/mL.

B13: 5-D1-G6-D9 (human IgG1 chimeric antibody) (antibody, V domains shown)
VH: EVQLQESGAELVKPGASVKLSCKTSGLTFSTNYISWLKQKPGQSLEWIAWIYGGNGGTSYNQRFTGKAQLTVDTSSSTAYMQFSSLTTEDSAIYYCTSHDYYGGPMDYWGQGTSVTVSS
VL: DIQMTQTTSSLSASLGDRVTISCRASQDISNYLNWYQQKPDGTVKLLIYFTSRLHSGVPSRFSASGSGTDYSLTISNLEQEDIATYFCQQTNTLPWTFGGGTKLEIK
Regarding B13, the “EC50 … on SKOV3” value in assay [2] is 1.55 µg/mL.

B14: 2-A7-B10-A3 (human IgG1 chimeric antibody) (antibody, V domains shown)
VH: QVQLQQSGAELVRPGVSVKISCKGSGYTFTDYAMHWVKQSHAKSLEWIGVINTNYVNTSYNQKFKGKATMTVDKSSSTAFMELARLTSEDSAIYYCARGGKYGNYVFFFAYWGQGTLVTVSA
VL: B13 VL with F50Y, A64G, T91G, W96Y
Regarding B14, the “EC50 … on SKOV3” value in assay [2] was 4.21 µg/mL.

For orientation: EC50 means the concentration that produces a half-maximal response. For orientation: Kd means the equilibrium constant for the complex coming apart. The koff is the first-order rate constant of dissociation. Low values mean slow dissociation, high ones fast dissociation. What is called kon is a measure of how fast the partners come together. Low values mean slower complex formation, high ones faster complex formation.

Source of the values: patent publication US20240400689A1 (ANTENGENE BIOLOGICS, published 2024).
